B1: smURFP: small ultra-red fluorescent protein, SEQ ID NO: 13, homodimer, covalently attaches biliverdin (protein)
chain: MKTSEQRVNIATLLTENKKKIVDKASQDLWRRHPDLIAPGGIAFSQRDRALCLRDYGWFLHLITFCLLAGDKGPIESIGLISIREMYNSLGVPVPAMMESIRCLKEASLSLLDEEDANETAPYFDYIIKAMS
modifications: homodimer; biliverdin chromophore; smRUFP Variant Polypeptide
B2: smURFP + BVMe2: smURFP with a single biliverdin dimethyl ester chromophore (protein)
chain: B1 chain
modifications: left off: small tags and cut ends
notes: smURFP with a single biliverdin dimethyl ester chromophore

Key:
PC3 cells = experiment: Photobleaching FP or FP fusions in mammalian cells; assay type: cell-based; conditions: for t50%, time to bleach for 50% emission intensity / A1, Double Exportential Decay Fit / A2, Double Exportential Decay Fit / A, Single Exponential Decay Fit / k1, Double Exportential Decay Fit / k2, Double Exportential Decay Fit / k, Single Exponential Decay Fit: PC3 cells; for t50%, time to bleach for 50% emission intensity: 25 μM BV or 1 μM BVMe2 for 4 h; for A1, Double Exportential Decay Fit / A2, Double Exportential Decay Fit / A, Single Exponential Decay Fit / k1, Double Exportential Decay Fit / k2, Double Exportential Decay Fit / k, Single Exponential Decay Fit: photobleaching; for mammalian cell photostability t50%: time to bleach 50% from an initial emission rate of 1,000 photons per s
Experimental: PC3 cells were transfected with 2 μg of circular DNA+5 μl Lipofectamine 2000 (Life Technologies) in 2 ml Opti-MEM (Life Technologies) for 4-5 h, transfection media was discarded, prewarmed growth media was added, and protein was produced for 48 h. 25 μM BV or 1 μM BVMe2 was incubated for 4 h. Cells were photobleached with continuous light exposure from a 150 W xenon arc lamp with eGFP EX/EM=495(10)/535(25) nm, tdTomato EX/EM=540(25)/595(50) nm, mCherry EX/EM=580(20)/[…] nm, and smURFP EX/EM=628(40)/680(30) nm focused with a 40×, 1.2 numerical aperture C-Apochromat oil-immersion lens on aZeiss Axiovert 200M inverted microscope. Photobleaching times were normalized to reflect an initial illumination intensity producing 1,000 photons per fluorescent molecule per second as previously described^37. Data was fit to a single exponential decay (F=A [exp^−kt]), where F is fluorescence that varies as a function of time, A is the fit normalized, initial fluorescence (should be 1), k is the rate of fluorescence decay (photobleaching), and t is time in s, or a double exponential decay (F=A1[exp^−k1^t]+A2[exp^−k2^t]), where F is fluorescence that varies as a function of time, A1 and A2 are the fit normalized, initial fluorescence (sum should be 1), k1 and k2 are the rates of fluorescence decay (photobleaching), and t is time in seconds, and data is shown in Table 6.

HEK293A cells = experiment: Fluorescence imaging of FPs in HEK293A cells with chromophore addition or HO-1 expression; assay type: cell-based
From the text: smURFP codons were optimized for human cell expression, and the gene was created by GenScript. smURFP, TDsmURFP (created from mammalian-optimized smURFP), IFP1.4 (mammalian-optimized form^35), IFP2.0 (mammalian-optimized form^46), and iRFP713 (mammalian-optimized form^36) were PCR amplified using Phusion High-Fidelity DNA Polymerase (NEB) with primers containing 5′ HindIII and 3′ XhoI restriction enzyme sites. HindIII-HF and XhoI (NEB)-digested PCR fragments were gel purified (Zymoclean Gel DNA Recovery Kit) and were ligated (T4 DNA Ligase, Life Technologies) into a similarly digested pCDNA3-IRES-eGFP vector (bicistronic to express two FPs in the same cell). For creation of HO-1-expressing mammalian vec-tors, the Synechocystis HO-1 was used, and the codons were not optimized for mammalian expression. Synechocystis HO-1 was directly amplified from the pBAD vector using primers containing 5′ BsiWI and 3′ XbaI restriction enzyme sites. pCDNA3 smURFP, TDsmURFP, IFP1.4, IFP2.0, or iRFP713-IRES-eGFP vectors were digested with BsiWI and XbaI (NEB), dephosphorylated (SAP, Roche), gel purified (Zymoclean Gel DNA Recovery Kit), and ligated (T4 DNA Ligase, Life Technologies) with similarly digested, purified HO-1 PCR fragment. For creation of smURFP fusions, smURFP was PCR amplified using Phusion High-Fidelity DNA Polymerase (NEB) with primers containing 5′ AgeI and 3′ NotI restriction enzyme sites for N-terminal fusions or with primers containing 5′ AgeI and 3′ BspEI restriction enzyme sites for C-terminal fusions. mGeos2-VEL-ManII-N-10 (Addgene 57551) and Dronpa-PDHA1-N-10 (Addgene 57292) vectors were digested with AgeI and NotI (NEB) and mCherry-αTubulin-C-18 (Addgene 55148) and tdTomato-LaminB1-10 (Addgene 58107) were digested with AgeI and BspEI, dephosphorylated (SAP, Roche), gel purified (Zymoclean Gel DNA Recovery Kit), and ligated (T4 DNA Ligase, Life Technologies) with similarly digested, purified smURFP PCR fragment. HEK293A (Invitrogen, Life Technologies), HT1080 (ATCC), and PC3 (ATCC) cells were grown in Dulbecco's Modified Eagle's medium (DMEM, Corning), supplemented with 10% FBS (Atlanta Biologicals)+1×penicillin—streptomycin (Fisher Scientific), which is referred to as growth media, on poly-D-lysine-coated glass-bottom culture dishes (MatTek, No. P35G-0-14-C). The HEK cell line is listed in the ICLAC and NCBI biosample databases and is commonly misidentified as the HeLa cell line. For expression of exogenous fluorescent proteins, there is no problem if there is a contaminating cell line because no endogenous biology or therapeutic results are being determined. HEK293A cells were purchased from Invitrogen (Life Technologies), and all experiments are derived from the same expanded frozen stock without cell line authentication or mycoplasma detection. Cells were transfected using 2 μg of circular DNA+5 μl Lipofectamine 2000 (Life Technologies) in 2 ml Opti-MEM (Life Technologies) for 4-5 h, transfection media was discarded, and prewarmed growth media was added. Chromophores (5 mM in DMSO) were added at indicated concentrations to growth media, warmed for 10-15 min at 37° C., and added to cells. For multiple timepoints, incubations were staggered to maintain equivalent incubation. Prior to imaging, cells were washed 1×2 ml growth media, 2×2 ml imaging solution, and imaged in 2 ml imaging solution. Fluorescence imaging was performed on a Zeiss Axiovert 200M inverted microscope controlled by SlideBook software. FPs were imaged with the following settings: eGFP, EX/EM=495(10)/535(25) nm, tdTomato EX/EM=540(25)/595(50) nm; mCherry and mCardinal, EX/EM=580(20)/653(95) nm; smURFP and TDsmURFP, EX/EX=628(40)/680(30) nm; and IFP1.4, IFP2.0, and iRFP713, EX/EM=665(45)/725(50) nm. […]

| Molecule | t50%, time to bleach for 50% emission intensity (PC3 cells) [s] | A1, Double Exportential Decay Fit (PC3 cells) | A2, Double Exportential Decay Fit (PC3 cells) | A, Single Exponential Decay Fit (PC3 cells) | k1, Double Exportential Decay Fit (PC3 cells) [s⁻¹] | k2, Double Exportential Decay Fit (PC3 cells) [s⁻¹] | k, Single Exponential Decay Fit (PC3 cells) [s⁻¹] | mammalian cell photostability t50% (PC3 cells) [s] | average time to bleach 50% emission, t50% (PC3 cells; with BV, mammalian cells (n=5)) [s] | average time to bleach 50% emission, t50% (PC3 cells; with BVMe2, mammalian cells (n=5)) [s] | brightness in cell culture compared with other FPs (HEK293A cells) | fold increase in fluorescence with HO-1+5-ALA+FeSO4 (HEK293A cells; HEK293A cells) [fold] | fold increase in fluorescence with expression of HO-1 (HEK293A cells; HEK293A cells) [fold] | fold increase in fluorescence with 25 μM BV (HEK293A cells; HEK293A cells, 3 h) [fold] | fold increase in fluorescence with 25 μM BVMe2 relative to 25 μM BV (HEK293A cells; HEK293A cells, 3 h) [fold] | fold increase in fluorescence with 25 μM PCB relative to 25 μM BV (HEK293A cells; HEK293A cells, 3 h) [fold] | fluorescence relative to eGFP expressed from IRES (HEK293A cells; HEK293A cells, in the presence of BVMe2) | fold brighter than IFP2.0 or iRFP713 (HEK293A cells; HEK293A cells) [fold] | fold increase in fluorescence relative to smURFP (HEK293A cells; HEK293A cells, chromophore incubation 3 h) [fold] |
| --- | --- | --- | --- | --- | --- | --- | --- | --- | --- | --- | --- | --- | --- | --- | --- | --- | --- | --- | --- |
| B1 | 410 | 0.23 | 0.72 | 0.75 | 0.00024 | 0.0022 | 0.0008 | 570 | 570 | 340 | comparable brightness to eGFP and is brighter than mCherry, mCardinal, IFP1.4, IFP2.0, and iRFP713 | 7.7 | 2.8 | 4.7 | 18 | 10 | five-fold greater fluorescence | – | – |
| B2 | 190 | 0.42 | 0.57 | 0.73 | 0.020 | 0.0012 | 0.0015 | 340 | – | – | – | – | – | – | – | – | – | 7 | > 32 |
